Target: HA-FBW7 (UniProt Q8VBV4)
Assay: FLAG IP, HA immunoblot
Details: reference: wild type

binding against the reference (sites T243,S247)	binding against the reference (sites T171,S175)	Substance
weaker		KLF2 (3xFLAG-KLF2) (from UniProt Q60843) 2A C (T243A/S247A)
	weaker	KLF2 (3xFLAG-KLF2) (from UniProt Q60843) 2A N (T171A/S175A)
